Target: T1, SARS-CoV-2 ORF7b accessory protein, full length, with C-terminal SA linker and Strep-tag II (SARS-CoV-2, UniProt P0DTD8 1-43)
T1 construct: ORF7b of SARS-CoV-2, 43 residues, full length; NMR samples are isotope labelled on chosen amino acids (Leu, Phe and others); Forms heterogeneous multimers; no defined number of copies; also called ORF7b-ST; ORF7b^L:F; not shown: Strep-tag II, C-terminal, kept
T1 chain: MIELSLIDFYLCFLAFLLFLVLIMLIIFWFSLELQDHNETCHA
Assay: solid-state NMR (2D hChH reverse-MIRROR, intermolecular polarization transfer)
Details: both partners purified

B1: E-cadherin transmembrane domain (E641-R673), purified, Leu-labelled, for solid-state NMR (domain or fragment, human, UniProt P12830-2 641-673, looked up)
chain: EAGLQIPAILGILGGILALLILILLLLLFLRRR
notes: also called E-cadTM; E-cadTM^L; source: wheat-germ cell-free synthesis, purified
binding result: binds

Reference: paper PMC11573672, “Analysis of the structure and interactions of the SARS-CoV-2 ORF7b accessory protein” (Proceedings of the National Academy of Sciences of the …, 2024)
